Assay results as given in FireProtDB.

B1: Citrate synthase, mitochondrial, P00889 (parent)
chain: MALLTAAARLFGAKNASCLVLAARHASASSTNLKDILADLIPKEQARIKTFRQQHGNTVVGQITVDMMYGGMRGMKGLVYETSVLDPDEGIRFRGYSIPECQKMLPKAKGGEEPLPEGLFWLLVTGQIPTEEQVSWLSKEWAKRAALPSHVVTMLDNFPTNLHPMSQLSAAITALNSESNFARAYAEGIHRTKYWELIYEDCMDLIAKLPCVAAKIYRNLYREGSSIGAIDSKLDWSHNFTNMLGYTDAQFTELMRLYLTIHSDHEGGNVSAHTSHLVGSALSDPYLSFAAAMNGLAGPLHGLANQEVLVWLTQLQKEVGKDVSDEKLRDYIWNTLNSGRVVPGYGHAVLRKTDPRYTCQREFALKHLPHDPMFKLVAQLYKIVPNVLLEQGKAKNPWPNVDAHSGVLLQYYGMTEMNYYTVLFGVSRALGVLAQLIWSRALGFPLERPKSMSTDGLIKLVDSK
B2: Cyclin-dependent kinase inhibitor 2A, P42771 (parent)
chain: MEPAAGSSMEPSADWLATAAARGRVEEVRALLEAGALPNAPNSYGRRPIQVMMMGSARVAELLLLHGAEPNCADPATLTRPVHDAAREGFLDTLVVLHRAGARLDVRDAWGRLPVDLAEELGHRDVARYLRAAAGGTRGSNHARIDAAEGPSDIPD
B3: Glypican-1, P35052 (parent)
chain: MELRARGWWLLCAAAALVACARGDPASKSRSCGEVRQIYGAKGFSLSDVPQAEISGEHLRICPQGYTCCTSEMEENLANRSHAELETALRDSSRVLQAMLATQLRSFDDHFQHLLNDSERTLQATFPGAFGELYTQNARAFRDLYSELRLYYRGANLHLEETLAEFWARLLERLFKQLHPQLLLPDDYLDCLGKQAEALRPFGEAPRELRLRATRAFVAARSFVQGLGVASDVVRKVAQVPLGPECSRAVMKLVYCAHCLGVPGARPCPDYCRNVLKGCLANQADLDAEWRNLLDSMVLITDKFWGTSGVESVIGSVHTWLAEAINALQDNRDTLTAKVIQGCGNPKVNPQGPGPEEKRRRGKLAPRERPPSGTLEKLVSEAKAQLRDVQDFWISLPGTLCSEKMALSTASDDRCWNGMARGRYLPEVMGDGLANQINNPEVEVDITKPDMTIRQQIMQLKIMTNRLRSAYNGNDVDFQDASDDGSGSGSGDGCLDDLCSRKVSRKSSSSRTPLTHALPGLSEQEGQKTSAASCPQPPTFLLPLLLFLALTVARPRWR
B4: Serine proteinase inhibitor IA-1, Q7M4T6 (parent)
chain: SAGKFIVIFKNDVSEDKIRETKDEVIAEGGTITNEYNMPGMKGFAGELTPQSLTKFQGLQGDLIDSIEEDGIVTTQ

Variants of: B1
Conditions: Sus scrofa; pH 7.5; Thermal; CD; Tris-HCl 5.0 mM; reversible: yes; structure 1CTS; whole UniProt chain shown

Row | Variant | Tm [°C] | change of melting temperature, mutant - wild type (higher = more stable) [°C]
1 | MALLTAAARLFGAKNASCLVLAARHASASSTNLKDILADLIPKEQARIKTFRQQHGNTVVGQITVDMMYGGMRGMKGLVYETSVLDPDEGIRFRGYSIPECQKMLPKAKGGEEPLPEGLFWLLVTGQIPTEEQVSWLSKEWAKRAALPSHVVTMLDNFPTNLHPMSQLSAAITALNSESNFARAYAEGIHRTKYWELIYEDCMDLIAKLPCVAAKIYRNLYREGSSIGAIDSKLDWSHNFTNMLGYTDAQFTELMRLYLTIHSDHEGGNVSAHTSHLVGSALSDPYLSFAAAMNGLAGPLHGLANQEVLVWLTQLQKEVGKDVSDEKLRDYIWNTLNSGRVVPGYGHAVLRKTDPRYTCQREFALKHLPHDPMFKLVAQLYKIVPNVLLEQGKAKNPWPNVQAHSGVLLQYYGMTEMNYYTVLFGVSRALGVLAQLIWSRALGFPLERPKSMSTDGLIKLVDSK [D402Q] | 69 | 11.1
2 | MALLTAAARLFGAKNASCLVLAARHASASSTNLKDILADLIPKEQARIKTFRQQHGNTVVGQITVDMMYGGMRGMKGLVYETSVLDPDEGIRFRGYSIPECQKMLPKAKGGEEPLPEGLFWLLVTGQIPTEEQVSWLSKEWAKRAALPSHVVTMLDNFPTNLHPMSQLSAAITALNSESNFARAYAEGIHRTKYWELIYEDCMDLIAKLPCVAAKIYRNLYREGSSIGAIDSKLDWSHNFTNMLGYTDAQFTELMRLYLTIHSDHEGGNVSAHTSHLVGSALSDPYLSFAAAMNGLAGPLHGLANQEVLVWLTQLQKEVGKDVSDEKLRDYIWNTLNSGRVVPGYGHAVLRKTDPRYTCQREFALKHLPHDPMFKLVAQLYKIVPNVLLEQGKAKNPWPNVGAHSGVLLQYYGMTEMNYYTVLFGVSRALGVLAQLIWSRALGFPLERPKSMSTDGLIKLVDSK [D402G] | 62.5 | 4.6
3 | MALLTAAARLFGAKNASCLVLAARHASASSTNLKDILADLIPKEQARIKTFRQQHGNTVVGQITVDMMYGGMRGMKGLVYETSVLDPDEGIRFRGYSIPECQKMLPKAKGGEEPLPEGLFWLLVTGQIPTEEQVSWLSKEWAKRAALPSHVVTMLDNFPTNLHPMSQLSAAITALNSESNFARAYAEGIHRTKYWELIYEDCMDLIAKLPCVAAKIYRNLYREGSSIGAIDSKLDWSHNFTNMLGYTDAQFTELMRLYLTIHSDHEGGNVSAHTSHLVGSALSDPYLSFAAAMNGLAGPLRGLANQEVLVWLTQLQKEVGKDVSDEKLRDYIWNTLNSGRVVPGYGHAVLRKTDPRYTCQREFALKHLPHDPMFKLVAQLYKIVPNVLLEQGKAKNPWPNVDAHSGVLLQYYGMTEMNYYTVLFGVSRALGVLAQLIWSRALGFPLERPKSMSTDGLIKLVDSK [H301R] | 56.8 | -1.1
4 | MALLTAAARLFGAKNASCLVLAARHASASSTNLKDILADLIPKEQARIKTFRQQHGNTVVGQITVDMMYGGMRGMKGLVYETSVLDPDEGIRFRGYSIPECQKMLPKAKGGEEPLPEGLFWLLVTGQIPTEEQVSWLSKEWAKRAALPSHVVTMLDNFPTNLHPMSQLSAAITALNSESNFARAYAEGIHRTKYWELIYEDCMDLIAKLPCVAAKIYRNLYREGSSIGAIDSKLDWSHNFTNMLGYTDAQFTELMRLYLTIHSDHEGGNVSAHTSHLVGSALSDPYLSFAAAMNGLAGPLGGLANQEVLVWLTQLQKEVGKDVSDEKLRDYIWNTLNSGRVVPGYGHAVLRKTDPRYTCQREFALKHLPHDPMFKLVAQLYKIVPNVLLEQGKAKNPWPNVDAHSGVLLQYYGMTEMNYYTVLFGVSRALGVLAQLIWSRALGFPLERPKSMSTDGLIKLVDSK [H301G] | 56 | -1.9

Variants of: B2
Conditions: Homo sapiens; pH 7.5; 25 °C; Urea; CD; Sodium phosphate 15 mM; NaCl 100 mM; reversible: yes; structure 1A5E; whole UniProt chain shown

Row | Variant | denaturant m value [kcal/mol/M] | denaturant midpoint (higher = more stable) [M]
5 | D84N | 2 | 1.8
6 | D74N | 1.2 | 1.4
7 | P81L | 1.1 | 3.4

Variants of: B3
Conditions: Homo sapiens; pH 7.4; Thermal; CD; Sodium Phosphate Buffer; reversible: no; structure 4ACR; whole UniProt chain shown

Row | Variant | Tm [°C] | change of melting temperature, mutant - wild type (higher = more stable) [°C]
8 | MELRARGWWLLCAAAALVACARGDPASKSRSCGEVRQIYGAKGFSLSDVPQAEISGEHLRICPQGYTCCTSEMEENLAQRSHAELETALRDSSRVLQAMLATQLRSFDDHFQHLLNDSERTLQATFPGAFGELYTQNARAFRDLYSELRLYYRGANLHLEETLAEFWARLLERLFKQLHPQLLLPDDYLDCLGKQAEALRPFGEAPRELRLRATRAFVAARSFVQGLGVASDVVRKVAQVPLGPECSRAVMKLVYCAHCLGVPGARPCPDYCRNVLKGCLANQADLDAEWRNLLDSMVLITDKFWGTSGVESVIGSVHTWLAEAINALQDNRDTLTAKVIQGCGNPKVNPQGPGPEEKRRRGKLAPRERPPSGTLEKLVSEAKAQLRDVQDFWISLPGTLCSEKMALSTASDDRCWNGMARGRYLPEVMGDGLANQINNPEVEVDITKPDMTIRQQIMQLKIMTNRLRSAYNGNDVDFQDASDDGSGSGSGDGCLDDLCSRKVSRKSSSSRTPLTHALPGLSEQEGQKTSAASCPQPPTFLLPLLLFLALTVARPRWR [N79Q] | 66 | 0
9 | MELRARGWWLLCAAAALVACARGDPASKSRSCGEVRQIYGAKGFSLSDVPQAEISGEHLRICPQGYTCCTSEMEENLAQRSHAELETALRDSSRVLQAMLATQLRSFDDHFQHLLQDSERTLQATFPGAFGELYTQNARAFRDLYSELRLYYRGANLHLEETLAEFWARLLERLFKQLHPQLLLPDDYLDCLGKQAEALRPFGEAPRELRLRATRAFVAARSFVQGLGVASDVVRKVAQVPLGPECSRAVMKLVYCAHCLGVPGARPCPDYCRNVLKGCLANQADLDAEWRNLLDSMVLITDKFWGTSGVESVIGSVHTWLAEAINALQDNRDTLTAKVIQGCGNPKVNPQGPGPEEKRRRGKLAPRERPPSGTLEKLVSEAKAQLRDVQDFWISLPGTLCSEKMALSTASDDRCWNGMARGRYLPEVMGDGLANQINNPEVEVDITKPDMTIRQQIMQLKIMTNRLRSAYNGNDVDFQDASDDGSGSGSGDGCLDDLCSRKVSRKSSSSRTPLTHALPGLSEQEGQKTSAASCPQPPTFLLPLLLFLALTVARPRWR [N79Q N116Q] | 66 | -3

Same assay, conditions: Homo sapiens; pH 7; 20 °C; Urea; CD; Sodium Phosphate Buffer; transition: 2; structure 4ACR; whole UniProt chain shown

Row | Variant | denaturant midpoint (higher = more stable) [M]
10 | MELRARGWWLLCAAAALVACARGDPASKSRSCGEVRQIYGAKGFSLSDVPQAEISGEHLRICPQGYTCCTSEMEENLAQRSHAELETALRDSSRVLQAMLATQLRSFDDHFQHLLQDSERTLQATFPGAFGELYTQNARAFRDLYSELRLYYRGANLHLEETLAEFWARLLERLFKQLHPQLLLPDDYLDCLGKQAEALRPFGEAPRELRLRATRAFVAARSFVQGLGVASDVVRKVAQVPLGPECSRAVMKLVYCAHCLGVPGARPCPDYCRNVLKGCLANQADLDAEWRNLLDSMVLITDKFWGTSGVESVIGSVHTWLAEAINALQDNRDTLTAKVIQGCGNPKVNPQGPGPEEKRRRGKLAPRERPPSGTLEKLVSEAKAQLRDVQDFWISLPGTLCSEKMALSTASDDRCWNGMARGRYLPEVMGDGLANQINNPEVEVDITKPDMTIRQQIMQLKIMTNRLRSAYNGNDVDFQDASDDGSGSGSGDGCLDDLCSRKVSRKSSSSRTPLTHALPGLSEQEGQKTSAASCPQPPTFLLPLLLFLALTVARPRWR [N79Q N116Q] | 5.37

Variants of: B4
Conditions: Pleurotus ostreatus; pH 7; Thermal; CD; sodium phosphate 50 mM; whole UniProt chain shown

Row | Variant | Tm [°C] | change of melting temperature, mutant - wild type (higher = more stable) [°C]
11 | SAGKFIVIFKNDVSEDKIRETKDEVIAEGGTITNEYNMPGMKGFAGELTPQSLTKAQGLQGDLIDSIEEDGIVTTQ [F56A] | 46 | -13
